T1: EcTatBC with 6xHis tag (complex of TatB and TatC), purified (E. coli, UniProt P69425 1-171; P69423 1-258)
T1 sequence 1: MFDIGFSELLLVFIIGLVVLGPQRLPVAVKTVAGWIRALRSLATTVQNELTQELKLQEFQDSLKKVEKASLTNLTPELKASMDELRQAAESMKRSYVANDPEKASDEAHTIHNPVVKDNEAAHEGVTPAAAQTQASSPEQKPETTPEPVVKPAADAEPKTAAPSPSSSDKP
T1 sequence 2: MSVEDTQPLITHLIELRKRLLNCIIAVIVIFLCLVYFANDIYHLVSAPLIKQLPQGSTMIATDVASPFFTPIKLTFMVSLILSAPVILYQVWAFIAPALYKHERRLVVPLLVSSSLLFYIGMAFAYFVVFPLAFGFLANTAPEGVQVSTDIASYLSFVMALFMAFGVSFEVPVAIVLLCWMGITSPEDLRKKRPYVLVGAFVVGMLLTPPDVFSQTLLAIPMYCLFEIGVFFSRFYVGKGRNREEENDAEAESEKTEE

B1: purified DmsD (natural protein)
chain: MTHFSQQDNFSVAARVLGALFYYAPESAEAAPLVAVLTSDGWETQWPLPEASLAPLVTAFQTQCEETHAQAWQRLFVGPWALPSPPWGSVWLDRESVLFGDSTLALRQWMREKGIQFEMKQNEPEDHFGSLLLMAAWLAENGRQTECEELLAWHLFPWSTRFLDVFIEKAEHPFYRALGELARLTLAQWQSQLLIPVAVKPLFR

Tests used:
purified DmsD (E. coli) = purified DmsD (E. coli) (UniProt P69853); experiment: SPR
[1] = biological target: T1, EcTatBC with 6xHis tag (complex of TatB …); experiment: SPR

Row | Molecule | Kd (purified DmsD (E. coli)) | binding result [1]
1 | ssDmsA_45 (printed ssDmsD_45), truncated form of ssDmsA-GFP (domain or fragment) | 55.9 nM | –
2 | B1 | – | binds

— article doi:10.1101/789909 (bioRxiv, 2019)
